# Reference: patent US20160193299A1, “MODIFIED NUCLEOSIDE, NUCLEOTIDE, AND NUCLEIC ACID COMPOSITIONS” (Moderna Therapeutics, Inc., priority 2011, published 2016)
# B1: G-CSF: human G-CSF mRNA SEQ ID NO: 6, polyA ~160 nt, Cap1, fully modified with 5-methylcytosine and pseudouridine (nucleic acid, listed as Homo sapiens)
# chain: GGGAAAUAAGAGAGAAAAGAAGAGUAAGAAGAAAUAUAAGAGCCACCAUGGCCGGUCCCGCGACCCAAAGCCCCAUGAAACUUAUGGCCCUGCAGUUGCUGCUUUGGCACUCGGCCCUCUGGACAGUCCAAGAAGCGACUCCUCUCGGACCUGCCUCAUCGUUGCCGCAGUCAUUCCUUUUGAAGUGUCUGGAGCAGGUGCGAAAGAUUCAGGGCGAUGGAGCCGCACUCCAAGAGAAGCUCUGCGCGACAUACAAACUUUGCCAUCCCGAGGAGCUCGUACUGCUCGGGCACAGCUUGGGGAUUCCCUGGGCUCCUCUCUCGUCCUGUCCGUCGCAGGCUUUGCAGUUGGCAGGGUGCCUUUCCCAGCUCCACUCCGGUUUGUUCUUGUAUCAGGGACUGCUGCAAGCCCUUGAGGGAAUCUCGCCAGAAUUGGGCCCGACGCUGGACACGUUGCAGCUCGACGUGGCGGAUUUCGCAACAACCAUCUGGCAGCAGAUGGAGGAACUGGGGAUGGCACCCGCGCUGCAGCCCACGCAGGGGGCAAUGCCGGCCUUUGCGUCCGCGUUUCAGCGCAGGGCGGGUGGAGUCCUCGUAGCGAGCCACCUUCAAUCAUUUUUGGAAGUCUCGUACCGGGUGCUGAGACAUCUUGCGCAGCCGUGAAGCGCUGCCUUCUGCGGGGCUUGCCUUCUGGCCAUGCCCUUCUUCUCUCCCUUGCACCUGUACCUCUUGGUCUUUGAAUAAAGCCUGAGUAGGAAG
# modifications: polyA ~160, Cap1, 5mC/pseudouridine modified
# Assays:
# G-CSF = assay: Example 19 LNP formulations in mice, serum G-CSF ELISA; format: in vivo; conditions: for G-CSF Serum Concentration: mice IV (n=4); for G-CSF protein expression detectable at least out to: mice IV
# Procedure: Formulations, listed in Table 31, were characterized by particle size, zeta potential, and encapsulation.
# LNP formulations, shown in Table 31 (above), were administered to mice (n=4) intravenously (IV) at a single modified mRNA dose 0.05 mg/kg or 0.005 mg/kg. There was also 3 control groups of mice (n=4) that were untreated. The mice were bled at 2 hours, 8 hours, 24 hours, 48 hours and 72 hours after they were administered with G-CSF or EPO modified mRNA formulations to determine the protein expression. Protein expression of G-CSF and EPO were determined using ELISA.
# hematocrit (HCT) = assay: Example 22 non-human primate study, hematocrit (HCT); format: in vivo, cynomolgus monkey
# Procedure: (§1) LNP formulations, shown in Table 31 (above), were administered to non-human primates (NHP) (cynomolgus monkey) (n=2) as intravenous injection (IV). The NHP were administered a single modified mRNA IV dose of 0.5 mg/kg, 0.05 mg/kg or 0.005 mg/kg of G-CSF or EPO in a dose volume of 0.5 mL/kg. The NHPs were bled before dosing with the modified mRNA LNP formulations to determine protein expression in the serum and a baseline complete blood count. After administration with the G-CSF modified mRNA formulation the NHP were bled at 8, 24, 48 and 72 hours to determined protein expression. After administration with the EPO modified mRNA formulation the NHP were bled at 8, 24, 48, 72 hours and 7 days to determined protein expression.
# [1] = tested on: interferon-alpha (IFN-alpha); assay: Example 22 non-human primate study, cytokine interferon-alpha (IFN-alpha); format: in vivo, cynomolgus monkey
# Procedure: as §1
# human G-CSF = assay: Example 32B human G-CSF modified RNA lipoplex IM/SC/IV, serum human G-CSF ELISA; format: in vivo, C57/BL6 mice; conditions: I.M., 100 μg, lipoplexed with 30% RNAIMAX, serum 6 hours
# Procedure: 6 hours after administration of a formulation, serum was collected from each mouse to measure the amount of human G-CSF protein in the mouse serum by human G-CSF ELISA and the results are shown in Table 54.
# neutrophil count [2] = assay: Example 40 multi-site IM and SC administration of G-CSF mRNA, neutrophil count; format: in vivo; conditions: mice, intramuscular, day 3
# Procedure: Injection of four doses or 2×50 ug (two sites) daily for three days (24 hrs interval) was performed. The fourth dose was administered 6 hrs before blood collection and CBC analysis. […] The mice were bled at 72 hours after the first mRNA injection (6 hours after the last mRNA dose) to determine the effect of mRNA-encoded human G-CSF on the neutrophil count. The dosing regimen is shown in Table 63 as are the resulting neutrophil counts (thousands/uL). In Table 63, an asterisks (*) indicate statistical significance at p<0.05.
# neutrophil count [3] = assay: Example 41 intravenous administration of lipoplexed G-CSF mRNA, neutrophil count; format: in vivo; conditions: mice IV, 10% lipoplex, 50 ug at days 0, 2, 4; day 5
# Procedure: Neutrophils were measured at days 1, 5 and 8. Controls included non-specific mammalian RNA or the formulation buffer alone (F.Buffer). The mice were bled at days 1, 5 and 8 to determine the effect of mRNA-encoded human G-CSF to increase neutrophil count. The dosing regimen is shown in Table 64 as are the resulting neutrophil counts (thousands/uL; K/uL).
# HEK293 = assay: Example 46B percent-modified G-CSF mRNA transfected in HEK293, secreted G-CSF ELISA; format: cell-based, human
# Procedure: Human embryonic kidney epithelial (HEK293) cells were seeded on 96-well plates at a density of 30,000 cells per well in 100 ul cell culture medium. 250 ng of modified G-CSF mRNA (SEQ ID NO: 6; polyA tail of approximately 160 nucleotides not shown in sequence; 5′cap, Cap1) formulated with RNAiMAX™ (Invitrogen, Carlsbad, Calif.) was added to a well. The G-CSF was completely modified with 5mC and pseudoU (100% modification), not modified with 5mC and pseudoU (0% modification) or was partially modified with 5mC and pseudoU so the mRNA would contain 75% modification, 50% modification or 25% modification. Control samples (AK 5/2, mCherry (SEQ ID NO: 7; polyA tail of approximately 160 nucleotides not shown in sequence; 5′cap, Cap1; fully modified 5mC and pseudoU) and untreated) were also analyzed. […] The supernatants were harvested after 16 hours and the secreted G-CSF protein was analyzed by ELISA.
# mice = assay: Saline formulation: human G-CSF / EPO in mouse serum; format: in vivo; conditions: 100 ug in F. buffer, bled 13 hours after injection, G-CSF group
# Procedure: The mice were bled at 13 hours after the injection to determine the concentration of the human polypeptide in serum in pg/mL. (G-CSF groups measured human G-CSF in mouse serum and EPO groups measured human EPO in mouse serum).
# [4] = Female NHP, 0.005 mg/kg, Pre-dose
# [5] = Female NHP, 0.05 mg/kg, Pre-dose
# [6] = Female NHP, 0.5 mg/kg, Pre-dose
# [7] = Male NHP, 0.005 mg/kg, Pre-dose
molecule,measurement,setting,value
B1,G-CSF Serum Concentration,"G-CSF; 0.005 mg/kg, 2 hours","3,447.8 pg/ml"
same,G-CSF Serum Concentration,"G-CSF; 0.005 mg/kg, 8 hours","11,454.0 pg/ml"
same,G-CSF Serum Concentration,"G-CSF; 0.005 mg/kg, 24 hours","4,960.2 pg/ml"
same,G-CSF Serum Concentration,"G-CSF; 0.005 mg/kg, 48 hours",686.4 pg/mL
same,G-CSF Serum Concentration,"G-CSF; 0.05 mg/kg, 2 hours","20,951.4 pg/ml"
same,G-CSF Serum Concentration,"G-CSF; 0.05 mg/kg, 8 hours","70,012.8 pg/ml"
same,G-CSF Serum Concentration,"G-CSF; 0.05 mg/kg, 24 hours","19,356.2 pg/ml"
same,G-CSF Serum Concentration,"G-CSF; 0.05 mg/kg, 48 hours","1,963.0 pg/ml"
same,G-CSF Serum Concentration,"G-CSF; 0.05 mg/kg, 72 hours",47.3 pg/mL
same,G-CSF protein expression detectable at least out to,G-CSF; 0.005 mg/kg,≥ 48 h
same,G-CSF protein expression detectable at least out to,G-CSF; 0.05 mg/kg,≥ 72 h
same,HCT,"hematocrit (HCT); Female NHP, 0.005 mg/kg, 14/18 days",0.42 L/L
same,HCT,"hematocrit (HCT); Female NHP, 0.005 mg/kg, 24 hours",0.42 L/L
same,HCT,"hematocrit (HCT); Female NHP, 0.005 mg/kg, 3 days",0.41 L/L
same,HCT,"hematocrit (HCT); Female NHP, 0.005 mg/kg, 7 days",0.42 L/L
same,HCT,hematocrit (HCT); [4],0.42 L/L
same,HCT,"hematocrit (HCT); Female NHP, 0.05 mg/kg, 14/18 days",0.4 L/L
same,HCT,"hematocrit (HCT); Female NHP, 0.05 mg/kg, 24 hours",0.4 L/L
same,HCT,"hematocrit (HCT); Female NHP, 0.05 mg/kg, 3 days",0.39 L/L
same,HCT,"hematocrit (HCT); Female NHP, 0.05 mg/kg, 7 days",0.4 L/L
same,HCT,hematocrit (HCT); [5],0.44 L/L
same,HCT,"hematocrit (HCT); Female NHP, 0.5 mg/kg, 14/18 days",0.37 L/L
same,HCT,"hematocrit (HCT); Female NHP, 0.5 mg/kg, 24 hours",0.38 L/L
same,HCT,"hematocrit (HCT); Female NHP, 0.5 mg/kg, 3 days",0.38 L/L
same,HCT,"hematocrit (HCT); Female NHP, 0.5 mg/kg, 7 days",0.38 L/L
same,HCT,hematocrit (HCT); [6],0.43 L/L
same,HCT,"hematocrit (HCT); Male NHP, 0.005 mg/kg, 14/18 days",0.41 L/L
same,HCT,"hematocrit (HCT); Male NHP, 0.005 mg/kg, 24 hours",0.4 L/L
same,HCT,"hematocrit (HCT); Male NHP, 0.005 mg/kg, 3 days",0.4 L/L
same,HCT,"hematocrit (HCT); Male NHP, 0.005 mg/kg, 7 days",0.39 L/L
same,HCT,hematocrit (HCT); [7],0.42 L/L
same,HCT,"hematocrit (HCT); Male NHP, 0.05 mg/kg, 14/18 days",0.44 L/L
same,HCT,"hematocrit (HCT); Male NHP, 0.05 mg/kg, 24 hours",0.39 L/L
same,HCT,"hematocrit (HCT); Male NHP, 0.05 mg/kg, 3 days",0.41 L/L
same,HCT,"hematocrit (HCT); Male NHP, 0.05 mg/kg, 7 days",0.42 L/L
same,HCT,"hematocrit (HCT); Male NHP, 0.05 mg/kg, Pre-dose",0.44 L/L
same,HCT,"hematocrit (HCT); Male NHP, 0.5 mg/kg, 14/18 days",0.34 L/L
same,HCT,"hematocrit (HCT); Male NHP, 0.5 mg/kg, 24 hours",0.37 L/L
same,HCT,"hematocrit (HCT); Male NHP, 0.5 mg/kg, 3 days",0.39 L/L
same,HCT,"hematocrit (HCT); Male NHP, 0.5 mg/kg, 7 days",0.39 L/L
same,HCT,"hematocrit (HCT); Male NHP, 0.5 mg/kg, Pre-dose",0.46 L/L
same,IFN-alpha,"[1]; Female NHP, 0.005 mg/kg, 4 days",0 pg/mL
same,IFN-alpha,"[1]; Female NHP, 0.005 mg/kg, Day 1 + 8 hr",0 pg/mL
same,IFN-alpha,[1]; [4],0 pg/mL
same,IFN-alpha,"[1]; Female NHP, 0.05 mg/kg, 4 days",0 pg/mL
same,IFN-alpha,"[1]; Female NHP, 0.05 mg/kg, Day 1 + 8 hr",0 pg/mL
same,IFN-alpha,[1]; [5],0 pg/mL
same,IFN-alpha,"[1]; Female NHP, 0.5 mg/kg, 4 days",0 pg/mL
same,IFN-alpha,"[1]; Female NHP, 0.5 mg/kg, Day 1 + 8 hr",529.2 pg/mL
same,IFN-alpha,[1]; [6],0 pg/mL
same,IFN-alpha,"[1]; Male NHP, 0.005 mg/kg, 4 days",0 pg/mL
same,IFN-alpha,"[1]; Male NHP, 0.005 mg/kg, Day 1 + 8 hr",0 pg/mL
same,IFN-alpha,[1]; [7],0 pg/mL
same,IFN-alpha,"[1]; Male NHP, 0.05 mg/kg, 4 days",0 pg/mL
same,IFN-alpha,"[1]; Male NHP, 0.05 mg/kg, Day 1 + 8 hr",0 pg/mL
same,IFN-alpha,"[1]; Male NHP, 0.05 mg/kg, Pre-dose",0 pg/mL
same,IFN-alpha,"[1]; Male NHP, 0.5 mg/kg, 4 days",0 pg/mL
same,IFN-alpha,"[1]; Male NHP, 0.5 mg/kg, Day 1 + 8 hr",503.8 pg/mL
same,IFN-alpha,"[1]; Male NHP, 0.5 mg/kg, Pre-dose",0 pg/mL
same,G-CSF,human G-CSF,85.6 pg/mL
same,increase in neutrophil count above control,neutrophil count [2],four fold increase
same,increase in neutrophil count above control,neutrophil count [3],four to five fold increase
same,half-life,HEK293,8 to 10 h
same,"Average Protein Product, serum (human G-CSF)",mice,45 pg/mL
